From article PMC7545097, “Mapping the native interaction surfaces of PREP1 with PBX1 by cross-linking mass-spectrometry and mutagenesis” (Scientific Reports, 2020)

B1: PBX1_(1-430), wild-type recombinant [human] / PREP1_(1-436), wild-type recombinant (TR-FIA) [not stated] (parent complex)
chain 1: MDEQPRLMHSHAGVGMAGHPGLSQHLQDGAGGTEGEGGRKQDIGDILQQIMTITDQSLDEAQARKHALNCHRMKPALFNVLCEIKEKTVLSIRGAQEEEPTDPQLMRLDNMLLAEGVAGPEKGGGSAAAAAAAAASGGAGSDNSVEHSDYRAKLSQIRQIYHTELEKYEQACNEFTTHVMNLLREQSRTRPISPKEIERMVSIIHRKFSSIQMQLKQSTCEAVMILRSRFLDARRKRRNFNKQATEILNEYFYSHLSNPYPSEEAKEELAKKCGITVSQVSNWFGNKRIRYKKNIGKFQEEANIYAAKTAVTATNVSAHGSQANSPSTPNSAGSSSSFNMSNSGDLFMSVQSLNGDSYQGAQVGANVQSQVDTLRHVISQTGGYSDGLAASQMYSPQGISANGGWQDATTPSSVTSPTEGPGSVHSDTSN
chain 2: MMATQTLSIDSYQDGQQMQVVTELKTEQDPNCSEPDAEGVSPPPVESQTPMDVDKQAIYRHPLFPLLALLFEKCEQSTQGSEGTTSASFDVDIENFVRKQEKEGKPFFCEDPETDNLMVKAIQVLRIHLLELEKVNELCKDFCSRYIACLKTKMNSETLLSGEPGSPYSPVQSQQIQSAITGTISPQGIVVPASALQQGNVAMATVAGGTVYQPVTVVTPQGQVVTQTLSPGTIRIQNSQLQLQLNQDLSILHQDDGSSKNKRGVLPKHATNVMRSWLFQHIGHPYPTEDEKKQIAAQTNLTLLQVNNWFINARRRILQPMLDSSCSETPKTKKKTAQNRPVQRFWPDSIASGVAQPPPSELTMSEGAVVTITTPVNMNVDSLQSLSSDGATLAVQQVMMAGQSEDESVDSTEEDAGALAPAHISGLVLENSDSLQ
B2: N-terminal GST-fused wild-type PREP1 [not stated] / PBX1_(1-430), wild-type recombinant [human] (parent complex)
chain 1: B1 chain 2
chain 2: B1 chain 1

Variants of: B1
Experiment: TR-FIA; parent: 1; read off a plot

Row | ratio to parent | Variant
1 | ~0.66 | chain 1 L105A, chain 1 L108A, chain 1 L113A
2 | ~0.42 | chain 1 L77A, chain 1 V80A
3 | ~0.56 | chain 1 I84A
4 | ~0.75 | chain 1 L47A
5 | ~0.8 | chain 1 I43A, chain 1 I46A, chain 1 I50A
6 | ~0.62 | chain 1 L105A, chain 1 L108A
7 | ~0.45 | chain 1 V80A
8 | ~0.34 | chain 1 L77A, chain 1 V80A, chain 1 L81A
9 | ~0.39 | chain 1 V80A, chain 1 L81A
10 | ~0.64 | chain 1 I197A, chain 1 I204A
11 | ~0.79 | chain 1 I43A, chain 1 I46A
12 | ~0.93 | chain 1 I53A
13 | ~0.66 | chain 1 L113A
14 | ~0.62 | chain 1 I50A
15 | ~1 | chain 1 I43A
16 | ~0.52 | chain 1 L81A
17 | ~0.9 | chain 1 I46A
18 | ~0.84 | chain 1 I43A, chain 1 I50A
19 | ~0.73 | chain 1 L108A
20 | ~0.83 | chain 1 I50A, chain 1 I53A
21 | ~0.63 | chain 1 L77A
22 | ~0.46 | chain 1 L77A, chain 1 I84A
23 | ~0.71 | chain 1 L105A

Variants of: B2
Experiment: TR-FIA; parent: 1; read off a plot

Row | ratio to parent | Variant
24 | ~0.59 | chain 1 L66A
25 | ~0.96 | chain 1 L249A
26 | ~0.91 | chain 1 V124A
27 | ~0.79 | chain 1 L130A
28 | ~0.43 | chain 1 L129A
29 | ~0.53 | chain 1 L70A
30 | ~0.58 | chain 1 L63A, chain 1 L66A, chain 1 L67A, chain 1 L70A
31 | ~0.95 | chain 1 L252A
32 | ~1 | chain 1 L245A
33 | ~1.1 | chain 1 L69A
34 | ~0.79 | chain 1 I122A
35 | ~0.65 | chain 1 L67A
36 | ~0.63 | chain 1 L125A
37 | ~0.48 | chain 1 L117A
38 | ~0.6 | chain 1 L63A
39 | ~0.88 | chain 1 I251A

Variants of: B2
Experiment: ELISA; PBX1 0.5 µM (highest point of the titration); GST control signal subtracted; parent: 0.8; read off a plot

Row | response | Variant
40 | ~0.13 Abs, 495 nm | chain 1 L63A, chain 1 L66A, chain 1 L67A, chain 1 L70A
